{"source": "patent US20050239704", "target": "T1, SarA (Staphylococcus aureus) (UniProt Q2G2U9)", "T1 sequence": "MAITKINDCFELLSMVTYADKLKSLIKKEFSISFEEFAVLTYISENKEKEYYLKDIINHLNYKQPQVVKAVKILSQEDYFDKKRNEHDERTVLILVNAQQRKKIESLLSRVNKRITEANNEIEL", "assay": "EMSA", "conditions": "2-5 ng radiolabeled P1 fragment; scale: fold more protein than SarR for complete shift", "data": [{"substance": "sarA P1 promoter fragment (nt 531-859)", "values": [{"measurement": "binding signal", "value": 10}]}]}
